The EC50 is the concentration needed to bring the measured effect to its halfway point. A high value points to weaker potency.

The target of assay [1] is human folate receptor 1 (folate receptor alpha, FRα) on T47D cells (human) (UniProt P15328). The assay is described as follows: flow cytometry on T47D cells, FITC anti-human IgG Fcγ detection; control run with M-10. Background: Flow cytometry measures light scatter and fluorescence of single cells or particles in a stream.
Assay [2] has the same target. The assay is described as follows: flow cytometry on T47D cells, FITC anti-human IgG Fcγ detection; control run with M-160.
Assay [3] has the same target. The assay is described as follows: flow cytometry on T47D cells, FITC anti-human IgG Fcγ detection; control run with M-166.
Assay [4] has the same target. The assay is described as follows: flow cytometry on T47D cells, FITC anti-human IgG Fcγ detection; control run with M-sSPDB-17.
Assay [5] shares this target. The assay is described as follows: flow cytometry on T47D cells, FITC anti-human IgG Fcγ detection; control run with M-sSPDB-30.
For assay [6] the target is unchanged. The assay is described as follows: flow cytometry on T47D cells, FITC anti-human IgG Fcγ detection; control run with M-sSPDB-87.
Assay [7] has the same target. The assay is described as follows: flow cytometry on T47D cells, FITC anti-human IgG Fcγ detection; control run with M-sSPDB-109.
The target is the same in assay [8]. The assay is described as follows: flow cytometry on T47D cells, FITC anti-human IgG Fcγ detection; control run with M-sSPDB-127.

Sequence of human folate receptor 1 (folate receptor alpha, FRα) on T47D cells (human) (P15328 25-234, stated change not applied): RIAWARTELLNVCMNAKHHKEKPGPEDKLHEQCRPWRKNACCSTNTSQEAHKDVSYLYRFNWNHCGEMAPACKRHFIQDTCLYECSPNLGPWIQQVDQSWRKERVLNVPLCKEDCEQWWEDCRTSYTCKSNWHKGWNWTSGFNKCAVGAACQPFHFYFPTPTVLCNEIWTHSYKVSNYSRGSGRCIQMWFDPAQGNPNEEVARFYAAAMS

B1: huMov19 antibody (unconjugated) (antibody, from a related filing, V domains shown)
VH: QVQLVQSGAEVVKPGASVKISCKASGYTFTGYFMNWVKQSPGQSLEWIGRIHPYDGDTFYNQKFQGKATLTVDKSSNTAHMELLSLTSEDFAVYYCTRYDGSRAMDYWGQGTTVTVSS
VL: DIVLTQSPLSLAVSLGQPAIISCKASQSVSFAGTSLMHWYHQKPGQQPRLLIYRASNLEAGVPDRFSGSGSKTDFTLTISPVEAEDAATYYCQQSREYPYTFGGGTKLEIKR
For B1, the EC50 in assay [1] was 0.3 nM; in assay [2] it was 0.2 nM; in assay [3], 0.2 nM; in assay [4], 0.2 nM; in assay [5], 0.2 nM; in assay [6], 0.2 nM. The concentration for a half-maximal effect (EC50) in assay [7] and in assay [8] was 0.2 nM throughout.
